One experiment concerns the target IL-21R (Sino Biological) (UniProt Q9HBE5 20-232). The experiment in a line: Octet (BLI) off-rate, antibody captured on AHC sensors. How it is done: (§1) All off-rate measurements were performed on an Octet Qk384 instrument (ForteBio), in 96-well microplates at 25° C. using anti-human IgG Fc capture (AHC, 18-5005) sensors with a shake speed of 1000 rpm. For off-rate determination, the antibodies/antibody fragments were loaded on the AHC sensors at 5 μg/mL. Following a short baseline in kinetics buffer (0.02% Tween20, 0.1% BSA, 0.05% sodium azide, 1X PBS). Offrate measurements were done for the following: human IL-2Rβ (AcroBiosystems), human IL-2Ry (Sino Biological), cynomolgus IL-2RP (Sino Biological), cynomolgus IL-2Rγ (expressed and purified in house using ExpiCHO expression system followed by Ni-NTA His-tag purification), mouse IL-2Rγ (Sino Biological), mouse IL-2Rβ (Sino Biological), human IL-2Rα (Sino Biological), IL-4R (Sino Biological), IL-7R (Sino Biological), IL-9R (R&D Systems) and IL-21R (Sino Biological). The following antibodies were used as positive controls to verify target binding and reagent quality: anti-human IL-9R (R&D Systems), anti-human IL-21R (R&D Systems), anti-human IL-7R (R&D Systems) and anti-human IL-4Ra (R&D Systems). The loaded sensors were then submerged in wells containing antigen at 100 nM concentration for association step. Dissociation was monitored in kinetics buffer. The capture surfaces were regenerated for 60 s. ForteBio data analysis software was used to fit the data to a 1:1 binding model to extract an association rate and dissociation rate.

The target of experiment [1] is T1, human IL-2Rα (Sino Biological) (human, UniProt P01589 22-213, limits assumed).
T1 construct: Bought recombinant protein; also called IL2RA; CD25
T1 sequence: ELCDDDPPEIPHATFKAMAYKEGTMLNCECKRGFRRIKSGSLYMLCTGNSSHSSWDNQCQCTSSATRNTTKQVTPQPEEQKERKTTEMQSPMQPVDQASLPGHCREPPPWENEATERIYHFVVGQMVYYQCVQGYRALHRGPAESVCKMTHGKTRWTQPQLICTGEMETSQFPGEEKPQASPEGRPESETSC
Described as above. The procedure:
as §1

In another experiment the target is T2, IL-4R (Sino Biological) (UniProt P24394 26-232).
T2 construct: also called IL-4Ra
T2 sequence (looked up): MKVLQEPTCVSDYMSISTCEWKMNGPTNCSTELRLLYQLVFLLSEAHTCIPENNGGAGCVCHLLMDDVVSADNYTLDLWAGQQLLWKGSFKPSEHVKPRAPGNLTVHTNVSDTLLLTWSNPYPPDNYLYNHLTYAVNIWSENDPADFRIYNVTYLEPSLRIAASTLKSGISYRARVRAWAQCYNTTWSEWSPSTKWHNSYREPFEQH
The experiment is described as above. The procedure:
as §1

Another experiment has as its target T3, IL-7R (Sino Biological) (UniProt P16871 21-239).
T3 sequence (looked up): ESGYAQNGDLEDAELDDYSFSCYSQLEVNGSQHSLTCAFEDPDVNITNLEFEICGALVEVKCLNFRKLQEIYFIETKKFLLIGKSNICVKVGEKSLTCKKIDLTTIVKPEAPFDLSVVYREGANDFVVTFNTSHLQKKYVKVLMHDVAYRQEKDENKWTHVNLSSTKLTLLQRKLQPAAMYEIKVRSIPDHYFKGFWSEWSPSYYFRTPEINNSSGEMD
The experiment is described as above. How it is done: as §1

Another experiment addresses T4, IL2RB, Human.
T4 construct: Same protein as m17, but here as recombinant protein in solution, not on CHO cells; also called human IL-2RB (AcroBiosystems); IL-2Rβ
T4 receptor chain: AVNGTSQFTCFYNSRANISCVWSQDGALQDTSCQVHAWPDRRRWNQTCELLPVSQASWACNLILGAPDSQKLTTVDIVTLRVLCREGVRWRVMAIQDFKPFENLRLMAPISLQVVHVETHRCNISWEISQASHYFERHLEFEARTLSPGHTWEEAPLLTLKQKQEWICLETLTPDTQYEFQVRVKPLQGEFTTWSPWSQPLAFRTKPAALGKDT
The experiment in a line: biolayer interferometry (Octet Qk384), antibody captured on anti-human Fc (AHC) sensors, antigen 7.8-500 nM in solution, 1:1 fit, KD = kd/ka. How it is done: (§2) All kinetics measurement experiments were performed on a ForteBio Octet Qk384 instrument using anti-human Fc capture (AHC, 18-5005) sensors. The bispecific heavy chain-only antibodies and antigens were diluted to final concentrations in Kinetics buffer (0.02% Tween20, 0.1% BSA, 0.05% sodium azide, 1X PBS). Kinetics measurements were against the following antigens: human IL-2RB (AcroBiosystems), human TL-2RG (AcroBiosystems), cynomolgus IL-2RB (Sino Biological), cynomolgus IL-2RG (expressed and purified in house using ExpiCHO expression system followed by Ni-NTA his-tag purification). The antibodies were loaded on the AHC sensors at 5 μg/mL for maximum loading. Following a short baseline in Kinetics buffer, the sensors were exposed to a series of analyte concentrations (7.8 nM to 500 nM) for association step and background subtraction was used to correct for sensor drifting. Dissociation was monitored in Kinetics buffer. The capture surfaces were regenerated for 60s. All experiments were performed with shaking at 1000 rpm. ForteBio's data analysis software was used to fit the data to a 1:1 binding model to extract an association rate and dissociation rate. The KD was calculated using the ratio kd/ka.

A further experiment addresses T5, IL2RB, Cyno (Macaca fascicularis, UniProt Q38J85).
T5 construct: Same protein as m18, but here as recombinant protein in solution, not on CHO cells; also called cynomolgus IL-2RB (Sino Biological)
T5 sequence (receptor chain, looked up): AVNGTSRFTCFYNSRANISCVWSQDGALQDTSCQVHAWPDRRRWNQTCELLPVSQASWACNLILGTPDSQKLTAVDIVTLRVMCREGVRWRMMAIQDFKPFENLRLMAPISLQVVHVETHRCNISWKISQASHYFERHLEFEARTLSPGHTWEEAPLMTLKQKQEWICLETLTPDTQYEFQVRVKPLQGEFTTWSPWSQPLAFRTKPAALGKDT
The experiment is described as above. The procedure: as §2

The values below come from patent publication US20260102487A1 (Amgen, published 2026).

Sequence of IL-21R (Sino Biological) (Q9HBE5 20-232 limits assumed): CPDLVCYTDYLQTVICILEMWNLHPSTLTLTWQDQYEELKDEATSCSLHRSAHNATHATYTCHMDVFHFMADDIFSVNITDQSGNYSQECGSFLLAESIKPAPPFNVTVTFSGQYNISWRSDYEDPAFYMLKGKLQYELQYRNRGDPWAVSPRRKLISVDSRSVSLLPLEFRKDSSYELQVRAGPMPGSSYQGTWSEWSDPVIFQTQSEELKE

B1: BsAb-2 (IL2RB_F09G**IL2RG_F16B) (bispecific antibody, human IgG4, V domains shown)
V domain 1: QVQLQESGPGLVKSSETLSLTCTVSGGSISSSDWWSWVRQPPGKGLEWIGEIDHSGSTNYNPSLMSRVTISVDKSKNQFSLKLSSVTAADTAVYFCARGSWELTDAFDIRGQGTLVTVSS
V domain 2: QVQLVESGGGLVKPGGSLRLSCAASGFTFSDYYMSWIRQAPGKGLEWVSYISSSGSTIYYADSVKGRFTISRDNAKNSLYLQMNSLRAEDTAVYYCARGDAVSITGDYRGQGTLVTVSS
notes: Heavy chain-only bispecific on silenced, stabilised human IgG4 Fc, knobs-into-holes, no light chains; not shown: C-terminal His-tag on the knob chain
In the case of B1, the binding result (in the experiment with IL-21R (Sino Biological); in experiment [1]; in the experiment with IL-4R (Sino Biological); in the experiment with IL-7R (Sino Biological)) was “no binding (tested: antigen at 100 nM)” throughout. In addition, the Kd with IL2RB, Human was found to be 93.4 nM; with IL2RB, Cyno, 16.7 nM.

B2: BsAb-6 (IL2RB_F18E**IL2RG_F16A) (bispecific antibody, human IgG4, V domains shown)
V domain 1: QVQLVESGGGVVQPGRSLRLSCAASGFTFSSYGMHWVRQAPGKEREWVAVISYDGSNKYYTDSVKGRFTISRDNSKNTLYLEMNSLRAEDTAVYYCARDLDYDVLTGDPVGGFDIWGQGTLVTVSS
V domain 2: QVQLVESGGGLVKPGGSLRLSCAASGFTFSDYYMSWIRQAPGKGLEWVSSISSSGDTIYYADSVQGRFTLSRDNAENSLFLQMNSLRAEDTAVYYCARGDAVSITGDYRGQGTLVTVSS
notes: as for B1
Take B2: the binding result (with IL-21R (Sino Biological); in experiment [1]; with IL-4R (Sino Biological); with IL-7R (Sino Biological)) was “no binding (tested: antigen at 100 nM)” throughout. The Kd with IL2RB, Human came to 53.8 nM; with IL2RB, Cyno it was 55.2 nM.

B3: BsAb-4 (IL2RB_F09G**IL2RG_F18A) (bispecific antibody, human IgG4, V domains shown)
V domain 1: QVQLQESGPGLVKSSETLSLTCTVSGGSISSSDWWSWVRQPPGKGLEWIGEIDHSGSTNYNPSLMSRVTISVDKSKNQFSLKLSSVTAADTAVYFCARGSWELTDAFDIRGQGTLVTVSS
V domain 2: QVQLVESGGDLVKPGGSLRLSCAASGFTFSDYYMSWLRQAPGKELEWVSHISSSGTTTYYADSVEGRFTITRDNAKNSLYLQMNSLRAEDTAVYYCARGAAVAPGFDSRGQGTLVTVSS
notes: as for B1
With B3, the binding result (with IL-21R (Sino Biological); in experiment [1]; in the experiment with IL-4R (Sino Biological); with IL-7R (Sino Biological)) was “no binding (tested: antigen at 100 nM)” throughout. Also, the Kd with IL2RB, Human was found to be 82.4 nM; with IL2RB, Cyno, 17.3 nM.

B4: BsAb-5 (IL2RB_F09K**IL2RG_F16B) (bispecific antibody, human IgG4, V domains shown)
V domain 1: QVQLQESSPGLVKPSETLSLTCTVSGGSISSSNWWSWVRQPPGKGLEWIGEISHSGSTNYNPSLKSRVTISVDKSKNQFSLRLSSVTAADTAVYFCGRGSWELTDAFDIRGQGTLVTVSS
V domain 2: QVQLVESGGGLVKPGGSLRLSCAASGFTFSDYYMSWIRQAPGKGLEWVSYISSSGSTIYYADSVKGRFTISRDNAKNSLYLQMNSLRAEDTAVYYCARGDAVSITGDYRGQGTLVTVSS
notes: as for B1
As for B4, the binding result (in the experiment with IL-21R (Sino Biological); in experiment [1]; with IL-4R (Sino Biological); with IL-7R (Sino Biological)) was “no binding (tested: antigen at 100 nM)” each time. For the same molecule, the Kd stood at 182 nM with IL2RB, Human and 16.5 nM with IL2RB, Cyno.

B5: BsAb-3 (IL2RB_F09G**IL2RG_F16C) (bispecific antibody, human IgG4, V domains shown)
V domain 1: QVQLQESGPGLVKSSETLSLTCTVSGGSISSSDWWSWVRQPPGKGLEWIGEIDHSGSTNYNPSLMSRVTISVDKSKNQFSLKLSSVTAADTAVYFCARGSWELTDAFDIRGQGTLVTVSS
V domain 2: QVQLVESGGGLVKPGGSLRLSCAASGFTFNDYYMSWIRQAPGKGLEWVSHISSSGSTIYYADSVKGRFTVSRDNANNSLYLQMHSLRAEDTAVYYCARGDAVSITGDYRGQGTLVTVSS
notes: as for B1
As for B5, the binding result (with IL-21R (Sino Biological); in experiment [1]; with IL-4R (Sino Biological); in the experiment with IL-7R (Sino Biological)) was “no binding (tested: antigen at 100 nM)” throughout. Besides, the Kd in the experiment with IL2RB, Human was determined as 96.7 nM; with IL2RB, Cyno it was 16 nM.

B6: BsAb-1 (IL2RB_F09C**IL2RG_F16A) (bispecific antibody, human IgG4, V domains shown)
V domain 1: QVQLQESGPGLVKPSGTLSLTCAVSGGSISSSDWWSWVRQPPGKGLEWIGEIDHSGSTNYNPSLMSRVTISVDKSKNQFSLKLSSVTAADTAVYFCGRGSWELSDAFDIRGQGTLVTVSS
V domain 2: QVQLVESGGGLVKPGGSLRLSCAASGFTFSDYYMSWIRQAPGKGLEWVSSISSSGDTIYYADSVQGRFTLSRDNAENSLFLQMNSLRAEDTAVYYCARGDAVSITGDYRGQGTLVTVSS
notes: as for B1
In the case of B6, the binding result (with IL-21R (Sino Biological); in experiment [1]; in the experiment with IL-4R (Sino Biological); with IL-7R (Sino Biological)) was “no binding (tested: antigen at 100 nM)” in each case. Further, the Kd with IL2RB, Human was 18.5 nM; with IL2RB, Cyno it was 10.7 nM.
